Measurements from the supplement of paper PMC9732359.
± gives the uncertainty stated by the source.

Assay: protein stability index of a GFP-peptide fusion (yeast GPS) (PSI 1-4); higher = more stable; sorted into four equal gates, so the index is relative within each strain
Conditions: pdr5∆
Method in brief: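 For each peptide, the protein stability index sums the read frequency in every gate after multiplying it by the gate number. Read frequencies came from plasmids that were PCR-amplified from each gate and Illumina-sequenced, with reads assigned to strains by barcodes. The gates were four equal bins of GFP/Cherry fluorescence ratio applied to mid-log yeast in leucine-free medium carrying a pooled library of tiled 17-residue yeast protein peptides fused downstream of GFP on a Cherry-expressing plasmid.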

Going from RRDDEVLVVRGSKKGQE [RPL26A] to RREFKQYSLERNSPFWW [PRP8], the protein stability index rises from 3.36 ± 0.089 to 3.64 ± 0.12.

Compared with RRFKNGFQTGSAKATSA [RPL37B], RRKDTSMVLFFVCLSCS [RPB9] is lower in protein stability index: 3.08 ± 0.079 for the first, 1.32 ± 0.07 for the second.

Going from RRREQTTYSVDDYYKEI [ISW2] to RRSLKKQGRIKNATEEL [CSN12], the protein stability index rises from 2.55 ± 0.035 to 3.56 ± 0.083.

First: RSATGAKRAQFRKKRKF [RPS8A]
Second: RSKGKQNRPYNHPELQG [RPC17]
The protein stability index of the first is higher: 2.5 ± 0.085 for the first, 2.32 ± 0.082 for the second.

First: RSLEKVNNSVSKTGSVD [SSN2]
Second: RSMVRKWQTLIEANVTV [RPS1A]
The protein stability index of the first is higher: 3.53 ± 0.15 for the first, 1.62 ± 0.044 for the second.

First: RSNKIKVVKTPGGILRA [RPL34A]
Second: RSPVFALNMLPSEILHL [GRR1]
The protein stability index of the first is lower: 2.12 ± 0.047 for the first, 2.27 ± 0.042 for the second.

First: RSSRLHIVYSLLVNPDI [YML103C/NUP188]
Second: RSSYMLELVNTPLTENI [YCG1]
The protein stability index of the first is lower: 2.01 ± 0.05 for the first, 3.18 ± 0.082 for the second.

First: RSTKDMIDAVFEQDSHL [SNF6]
Second: RTDATFIRVIGSELVQK [RPT1]
The protein stability index of the first is higher: 3.34 ± 0.054 for the first, 3.19 ± 0.057 for the second.

First: RTLRRKGDINPEVSMIR [RPB2]
Second: RTLTAVHDKILEDLVFP [RPS7A]
The protein stability index of the first is higher: 3.39 ± 0.13 for the first, 3.15 ± 0.073 for the second.

First: RTSTRGRGRGRGRGRGR [SNF2]
Second: RTYSKTYSTPKRPYESS [RPS9A]
The protein stability index of the first is higher: 3.17 ± 0.12 for the first, 2.23 ± 0.066 for the second.

RVERSSRSTDNFHNSKK [RRI1] and RVIDDNNRRRSRKRGGE [SIR3] are within error of each other in protein stability index: 3.25 ± 0.078 for the first, 3.36 ± 0.11 for the second.

First: RVISEYYSRITLLRLNE [RPN5]
Second: RVLEIQTSLVRMFEKNV [SKI6]
The protein stability index of the first is lower: 1.67 ± 0.05 for the first, 3.07 ± 0.065 for the second.

RVSKDKKSGSLTFNSKN [FAS2] and RVTGGMKVKADRDESSP [RPS14A] are within error of each other in protein stability index: 3.26 ± 0.072 for the first, 3.24 ± 0.063 for the second.

RVTNTTSTDFPGFSKDA [RPC40] and RYEEFADKVKLGRVRNH [RPC40] are within error of each other in protein stability index: 3.04 ± 0.21 for the first, 2.99 ± 0.074 for the second.

Compared with RYLDNLKQEIDRGLSIK [SNU114], RYNGGNDNIGANRSRFN [SMB1] is higher in protein stability index: 2.9 ± 0.17 for the first, 3.39 ± 0.078 for the second.

RYRLLSDVSDFEGWGHE [RPN1] and RYSNLVCKKADVDLHKR [RPS18A] are within error of each other in protein stability index: 3.35 ± 0.1 for the first, 3.38 ± 0.096 for the second.

First: SAAASESDVAKQLASFG [RPL16B]
Second: SAAGMTAAIDSVVSQIE [FAS1]
The protein stability index of the first is lower: 2.83 ± 0.042 for the first, 3.15 ± 0.11 for the second.

First: SAAMSIDKLSDVVMKAT [PRP8]
Second: SAASIPPQQTYHFPIFN [RPN4]
The protein stability index of the first is lower: 2.6 ± 0.046 for the first, 2.83 ± 0.045 for the second.

Compared with SADREIQRTLMELLTQM [RPT4], SALQQIMYQQMLKYRRL [SNF2] is lower in protein stability index: 3.16 ± 0.1 for the first, 1.43 ± 0.036 for the second.

Compared with SATFLRIVGSELIQKYL [RPT2], SAVVGPNGSGKSNVIDS [SMC4] is higher in protein stability index: 1.46 ± 0.071 for the first, 2.87 ± 0.043 for the second.

Compared with SCAIHARIVRVRSREDR [RPS26A], SDDDNIGQSEELSDKEI [ISW2] is higher in protein stability index: 1.39 ± 0.11 for the first, 3.44 ± 0.09 for the second.

SDKIPYVAPTKKEYIEL [SRB4] and SDLINKDLVKNNVSFNA [FAS1] are within error of each other in protein stability index: 2.7 ± 0.1 for the first, 2.58 ± 0.074 for the second.

SDPVCLFVCNKDPDVPL [POP3] and SDRREHDEKLSDELHNQ [LIN1] are within error of each other in protein stability index: 2.35 ± 0.075 for the first, 2.56 ± 0.18 for the second.

Compared with SDSIEKIVEIDRHIGCA [PUP2], SDSYKVSLQNFSSSVSL [RRP40] is lower in protein stability index: 3.11 ± 0.24 for the first, 1.8 ± 0.044 for the second.

Going from SEDDSESGKVFIGRLPI [RPB2] to SEGFEPTFSTHAQLLLS [PRP8], the protein stability index falls from 3.19 ± 0.073 to 2.08 ± 0.037.

In the case of SEISIIDATLKEELLRD [RRP45], the protein stability index is reported as 2.22 ± 0.1.
